These results are taken from patent US20200024360A1 (Janssen / Centocor, published 2020).

Positions count from the first letter of the chain named. Names and notes keep the numbering of the source.

For assay [1], the target named is T1, cynomolgus CD3ε on primary cynomolgus CD4+ T cells (cynomolgus monkey, UniProt Q95LI5 22-198).
T1 construct: whole, on cells
Description: flow cytometry on primary cynomolgus CD4+ T cells (CD3e), anti-human IgG (H+L) Alexa Fluor 647. As for the experimental part:
(§1) The resulting panel of anti-CD3 antibodies was tested for binding against cell-surface CD3ε on primary human T cells. To do this, binding of antibodies from expression supernatants was visualized using a polyclonal anti-human secondary antibody and analyzed by flow cytometry. Briefly, binding of anti-CD3 antibodies to cell-surface CD3E was assessed by flow cytometry using primary Human T lymphocytes purified by negative selection (Biological Specialty, Colmar, USA). Expression supernatants or purified antibodies were normalized to 10 μg/ml in media or FACS buffer (BD BioSciences), respectively. 2×10⁵ cells were aliquoted into wells of a 96 well round-bottomed plate (CoStar) for labeling. Antibodies in expression supernatant were added to cells and incubated for 45 min at 4° C. Following centrifugation at 1300 rpm for 3 min and removal of supernatant, 50 μL of anti-human IgG (H+L) Alexa Fluor 647 secondary antibody (Life technologies Inc.) was incubated with the cells at a final concentration of 10 μg/mL for 30 min at 4° C. away from direct light. Following washing and resuspension in 30 μL FACs buffer (BD BioSciences). Sample collection was performed on an Intellicyt HTFC system using ForeCyt software. Viable single cells were gated prior to analysis of binding using the green or red fixable live/dead dyes (Life Technologies Inc.) and forward/side scatter area and height parameters, respectively. Graphs were generated in GraphPad Prism version 5 using mean fluorescence intensity values.
Binding analysis of the anti-CD3 hits to primary cynomolgus CD4⁺ T cells was then tested in order to assess the retention of cross-reactivity. Purified CD4⁺ T cells from the peripheral blood of cynomolgus monkeys (Zen Bio, Triangle Research Park, USA were used). Assay protocols were similar to those described above.

The target of assay [2] is T2, human CD3ε on primary human T cells (human, UniProt P07766 23-207).
T2 construct: whole, on cells; Part of the TCR-CD3 complex on the cells; also called cell-surface CD3ε; CD3E
T2 sequence (P07766 23-207): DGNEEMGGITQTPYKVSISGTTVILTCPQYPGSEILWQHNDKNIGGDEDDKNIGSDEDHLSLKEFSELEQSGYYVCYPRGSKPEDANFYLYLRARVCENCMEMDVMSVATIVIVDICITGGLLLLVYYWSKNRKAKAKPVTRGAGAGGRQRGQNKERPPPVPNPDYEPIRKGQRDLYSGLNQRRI
The assay is described as follows: flow cytometry on primary human T cells (cell-surface CD3e), anti-human IgG (H+L) Alexa Fluor 647; one intermediate concentration of the titration is shown. As for the experimental part:
as §1
Background: A flow cytometer gives signals particle by particle.

Assay [3] deals with T3, human PSMA (prostate specific membrane antigen), full length (human, UniProt Q04609 1-750).
T3 construct: On LNCaP or C4-2B cells (endogenous) or transduced HEK293F cells; also called FOLH1_HUMAN; hPSMA
T3 sequence (Q04609 whole entry): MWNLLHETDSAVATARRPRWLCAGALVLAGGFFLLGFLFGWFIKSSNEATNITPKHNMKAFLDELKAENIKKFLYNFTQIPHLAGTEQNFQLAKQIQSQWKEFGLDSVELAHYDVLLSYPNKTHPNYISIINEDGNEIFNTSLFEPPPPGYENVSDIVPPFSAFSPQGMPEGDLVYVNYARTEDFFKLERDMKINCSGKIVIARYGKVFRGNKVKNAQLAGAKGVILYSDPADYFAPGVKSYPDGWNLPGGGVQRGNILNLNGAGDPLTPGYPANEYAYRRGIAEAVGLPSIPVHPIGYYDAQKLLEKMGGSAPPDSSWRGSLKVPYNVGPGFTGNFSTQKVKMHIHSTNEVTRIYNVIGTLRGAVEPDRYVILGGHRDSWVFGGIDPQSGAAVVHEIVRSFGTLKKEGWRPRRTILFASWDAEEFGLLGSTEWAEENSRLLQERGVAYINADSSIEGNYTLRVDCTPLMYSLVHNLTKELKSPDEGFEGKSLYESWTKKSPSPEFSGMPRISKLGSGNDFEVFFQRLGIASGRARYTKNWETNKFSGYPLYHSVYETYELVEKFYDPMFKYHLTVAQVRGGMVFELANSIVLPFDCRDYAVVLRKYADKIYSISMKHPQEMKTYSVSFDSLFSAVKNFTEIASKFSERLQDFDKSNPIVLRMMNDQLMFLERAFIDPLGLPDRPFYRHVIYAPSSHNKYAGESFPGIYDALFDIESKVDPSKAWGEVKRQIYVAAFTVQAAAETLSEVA
Description: flow cytometry cell binding assay, bispecific antibody titrated on LNCaP cells (human PSMA). As for the experimental part: PSMA×CD3 bispecific antibodies were tested for binding to PSMA positive cell lines LNCAP, human PSMA-HEK, Chimpanzee-PSMA-HEK and Cynomolgous monkey PSMA-HEK. To assess the binding capabilities of the PSMA bispecific antibodies, the cell-binding assay was utilized (described previously). Briefly, PSMA expressing tumor cells are bound by bispecific antibodies at known concentrations and the bound antibody is detected by an anti-human kappa light chain PE conjugated detection reagent (Invitrogen). The Mean Fluorescents Intensity (MFI) is the measure of bound bispecific antibody. The MFI is converted to a relative EC₅₀. EC₅₀ is a commonly used dose-response curve, where the half maximal effective concentration or the EC₅₀ point is defined as the inflection point of the curve. EC₅₀ s were determined by measuring cell bound bispecific and known concentrations. […] The dose response curves were then diluted down to that of background or no bispecific binding. The inflection point of this curve reflects the EC₅₀ point. The calculated EC₅₀ is determined by taking the ug/ml amount of bispecific antibody at the EC₅₀ point and converting it to a molarity value based on the MW of the bispecific antibody. Bispecific antibodies were normalized for protein concentration and then incubated with the same number of cells expressing either human or cyno PSMA. The MFI at each concentration was collected by flow cytometry and plotted as a function of concentration. Data was transformed via log 10 and then plotted. Nonlinear regression of binding curves was done to determine EC₅₀ s. These relative values were used for ranking PSMA binding to target cells.
PSMA×CD3 bispecific antibodies were tested for binding to PSMA positive cell line, LNCAP, to PSMA negative cell line, PC3. To assess the binding capabilities of the PSMA bispecific antibodies, the cell-binding assay was utilized (described previously). Bispecific antibodies were normalized for protein concentration and then incubated with the same number of cells expressing either human or cyno PSMA. The MFI at each concentration was collected by flow cytometry and plotted as a function of concentration.

T1 sequence (Q95LI5 22-198): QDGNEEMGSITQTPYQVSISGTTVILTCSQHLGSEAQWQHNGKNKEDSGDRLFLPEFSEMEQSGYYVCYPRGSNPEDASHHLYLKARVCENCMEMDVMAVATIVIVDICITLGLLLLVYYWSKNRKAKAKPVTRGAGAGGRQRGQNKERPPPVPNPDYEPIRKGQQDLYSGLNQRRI

B1: CD3B150 (antibody, V domains shown)
VH: EVQLLESGGGLVQPGGSLRLSCAASGFTFNTYAMNWVRQAPGKGLEWVARIRSKYNNYATYYADSVKGRFTISRDNSKNTLYLQMNSLRAEDTAVYYCAKHGNFGNSYVSWFAYWGQGTLVTVSS
VL: QTVVTQEPSLTVSPGGTVTLTCRSSTGAVTTSNYANWVQQKPGQAPRGLIGGTNKRAPGTPARFSGSLLGGKAALTLSGVQPEDEAEYYCALWYSNLWVFGGGTKLTVL
notes: also called CD3H142/CD3L66; CD3B50
For the molecule B1, the binding result in assay [1] and in assay [2] was “binds” each time.

B2: CD3B148 (antibody, V domains shown)
VH: B1 VH
VL: QSVLTQPPSVSAAPGQKVTISCRSSTGAVTTSNYANWVQQLPGTAPKGLIGGTNKRAPGIPDRFSGSKSGTSATLGITGLQTGDEADYYCALWYSNLWVFGGGTKLTVL
notes: also called CD3H142/CD3L64
Regarding B2, the binding result in assay [2] is on record as “binds”.

B3: CD3B147 (antibody, V domains shown)
VH: B1 VH
VL: B1 VL with T2A, V80A
notes: also called CD3H142/CD3L63
On to B3, for which the binding result in assay [1] and in assay [2] was “binds” throughout.

B4: CD3B143 (antibody, V domains shown)
VH: B1 VH with L5V, D64A, N76D, T80S, R89K, A90T, K100R
VL: B1 VL with T2A, V80A
notes: also called CD3H141/CD3L63
For B4, the binding result in assay [1] and in assay [2] was “binds” each time.

B5: CD3B151 (antibody, V domains shown)
VH: B1 VH with A99V
VL: B1 VL with T2A, V80A
notes: also called CD3H143/CD3L63
With B5, the binding result in assay [1] and in assay [2] was “binds” each time.

B6: CD3B146 (antibody, V domains shown)
VH: B1 VH with L5V, D64A, N76D, T80S, R89K, A90T, K100R
VL: B1 VL
notes: also called CD3H141/CD3L66
As to B6, the binding result in assay [1] and in assay [2] was “binds” in each case.

B7: CD3B154 (antibody, V domains shown)
VH: B1 VH with A99V
VL: B1 VL
notes: also called CD3H143/CD3L66
Take B7: the binding result in assay [1] and in assay [2] was “binds” each time.

B8: CD3B158 (antibody, V domains shown)
VH: EVQLVESGGGLVQPGGSLKLSCAASGFTFNTYAMNWVRQASGKGLEWVGRIRSKYNGYATYYAASVKGRFTISRDDSKNTAYLQMNSLKTEDTAVYYCTRHGNFGNSYVSWFAYWGQGTLVTVSS
VL: B1 VL
notes: also called CD3H144/CD3L66
On to B8, for which the binding result in assay [1] and in assay [2] was “binds” in each case.

B9: CD3B156 (antibody, V domains shown)
VH: B8 VH
VL: B2 VL
notes: also called CD3H144/CD3L64
As to B9, the binding result in assay [1] and in assay [2] was “binds” each time.

B10: CD3B155 (antibody, V domains shown)
VH: B8 VH
VL: B1 VL with T2A, V80A
notes: also called CD3H144/CD3L63
Turning to B10, the binding result in assay [1] and in assay [2] was “binds” in each case.

B11: PS3B72 (bispecific antibody, human IgG4 S228P, kappa, lambda, F234A L235A)
heavy 1: not shown
light 1: not shown
heavy 2: EVQLVESGGGLVQPGGSLRLSCAASGFTFNTYAMNWVRQAPGKGLEWVARIRSKYNNYATYYAASVKGRFTISRDDSKNSLYLQMNSLKTEDTAVYYCARHGNFGNSYVSWFAYWGQGTLVTVSSASTKGPSVFPLAPCSRSTSESTAALGCLVKDYFPEPVTVSWNSGALTSGVHTFPAVLQSSGLYSLSSVVTVPSSSLGTKTYTCNVDHKPSNTKVDKRVESKYGPPCPPCPAPEAAGGPSVFLFPPKPKDTLMISRTPEVTCVVVDVSQEDPEVQFNWYVDGVEVHNAKTKPREEQFNSTYRVVSVLTVLHQDWLNGKEYKCKVSNKGLPSSIEKTISKAKGQPREPQVYTLPPSQEEMTKNQVSLTCLVKGFYPSDIAVEWESNGQPENNYKTTPPVLDSDGSFLLYSKLTVDKSRWQEGNVFSCSVMHEALHNHYTQKSLSLSLGK
light 2: QTVVTQEPSLTVSPGGTVTLTCRSSTGAVTTSNYANWVQQKPGQAPRGLIGGTNKRAPGTPARFSGSLLGGKAALTLSGVQPEDEAEYYCALWYSNLWVFGGGTKLTVLGQPKAAPSVTLFPPSSEELQANKATLVCLISDFYPGAVTVAWKADSSPVKAGVETTTPSKQSNNKYAASSYLSLTPEQWKSHRSYSCQVTHEGSTVEKTVAPTECS
notes: IgG4 PAA; PSMA arm first, then CD3 arm (F405L, R409K); also called PSMB360 x CD3B219
For the molecule B11, the binding result in assay [3] was “binds”.

B12: PS3B74 (bispecific antibody, human IgG4 S228P, kappa, lambda, F234A L235A)
heavy 1: not shown
light 1: not shown
heavy 2: B11 heavy 2
light 2: B11 light 2
notes: IgG4 PAA; PSMA arm first, then CD3 arm (F405L, R409K); also called PSMB362 x CD3B219
With B12, in assay [3], the binding result is “binds”.

B13: PS3B73 (bispecific antibody, human IgG4 S228P, kappa, lambda, F234A L235A)
heavy 1: not shown
light 1: not shown
heavy 2: B11 heavy 2
light 2: B11 light 2
notes: IgG4 PAA; PSMA arm first, then CD3 arm (F405L, R409K); also called PSMB361 x CD3B219
In the case of B13, in assay [3], the binding result was “binds”.

B14: PS3B75 (bispecific antibody, human IgG4 S228P, kappa, lambda, F234A L235A)
heavy 1: not shown
light 1: not shown
heavy 2: B11 heavy 2
light 2: B11 light 2
notes: IgG4 PAA; PSMA arm first, then CD3 arm (F405L, R409K); also called PSMB363 x CD3B219
For the molecule B14, in assay [3], the binding result is reported as “binds”.

B15: CD3B124 (antibody, V domains shown)
VH: EVKLLESGGGLVQPKGSLKLSCAASGFTFNTYAMNWVRQAPGKGLEWVARIRSKYNNYATYYADSVKDRFTISRDDSQSILYLQMNNLKTEDTAMYYCVRHGNFGNSYVSWFAYWGQGTLVTVSA
VL: QAVVTQESALTTSPGETVTLTCRSSTGAVTTSNYANWVQEKPDHLFTGLIGGTNKRAPGVPARFSGSLIGDKAALTITGAQTEDEAIYFCALWYSNLWVFGGGTKLTVL
notes: also called chimeric SP34-derived antibody
Take B15: the binding result in assay [1] is recorded as “binds”.
